Measured values as given in patent publication US20230122079A1.

B1: v32909 digested with Matriptase (Fc fusion)
chain 1: SANAGGGGSGGGGSQVQLVESGGGVVQPGRSLRLSCAASGFTFSSYGMHWVRQAPGKGLEWVAFIRYDGSNKYYADSVKGRFTISRDNSKNTLYLQMNSLRAEDTAVYYCKTHGSHDNWGQGTMVTVSSGGGGSMSGR
chain 2: SANAGGGGSGGGGSQSVLTQPPSVSGAPGQRVTISCSGSRSNIGSNTVKWYQQLPGTAPKLLIYYNDQRPSGVPDRFSGSKSGTSASLAITGLQAEDEADYYCQSYDRYTHPALLFGTGTKVTVL
B2: v32910 digested with Matriptase (Fc fusion)
chain: SANAGGGGSGGGGSQVQLVESGGGVVQPGRSLRLSCAASGFTFSSYGMHWVRQAPGKGLEWVAFIRYDGSNKYYADSVKGRFTISRDNSKNTLYLQMNSLRAEDTAVYYCKTHGSHDNWGQGTMVTVSSGGGGSGGGSGGGSGGGGSGGGGSQSVLTQPPSVSGAPGQRVTISCSGSRSNIGSNTVKWYQQLPGTAPKLLIYYNDQRPSGVPDRFSGSKSGTSASLAITGLQAEDEADYYCQSYDRYTHPALLFGTGTKVTVL

Assays:
[1] = molecular target: recombinant IL12 (Peprotech) (human) (UniProt P29460); assay: SPR; SPR binding to immobilized IL12; kinetics post-digest with Matriptase
Sequence of recombinant IL12 (Peprotech) (human) (P29460 23-328 limits assumed, chain 1 of 2): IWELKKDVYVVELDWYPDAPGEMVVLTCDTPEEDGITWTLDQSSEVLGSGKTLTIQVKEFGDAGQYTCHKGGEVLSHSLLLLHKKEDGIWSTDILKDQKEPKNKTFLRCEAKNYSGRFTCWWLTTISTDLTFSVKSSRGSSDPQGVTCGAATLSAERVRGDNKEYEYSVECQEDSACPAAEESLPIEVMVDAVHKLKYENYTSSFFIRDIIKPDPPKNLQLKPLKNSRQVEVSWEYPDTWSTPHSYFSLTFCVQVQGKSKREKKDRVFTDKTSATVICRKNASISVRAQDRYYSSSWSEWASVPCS
Sequence of recombinant IL12 (Peprotech) (human) (chain, as listed by the source limits assumed, chain 2 of 2): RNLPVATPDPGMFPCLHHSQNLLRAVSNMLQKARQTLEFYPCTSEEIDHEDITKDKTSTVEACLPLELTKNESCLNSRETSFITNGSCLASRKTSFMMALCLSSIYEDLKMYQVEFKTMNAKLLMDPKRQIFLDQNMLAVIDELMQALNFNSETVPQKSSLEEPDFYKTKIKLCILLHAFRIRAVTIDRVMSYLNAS

[2] = molecular target: recombinant IL12 (Peprotech) (human) (UniProt P29460); assay: SPR; SPR binding to immobilized IL12; kinetics post-digest with Matriptase; ka near instrument detection limit

Row | Binder | Kd [1] [pM] | koff [1] [s⁻¹] | kon [2] [M⁻¹ s⁻¹]
1 | B1 | 1.47 | 6.48e-05 | 4.19e+07
2 | B2 | 5.37 | 4.68e-05 | 8.65e+06
